Test [1] concerns the target T1, MET (cMET, Sino Biological Cat. No. 10692-H08H) (UniProt P08581 25-932).
T1 construct: Soluble analyte of the BLI assays
As to the kind of experiment: BLI: antibody captured on anti-human Fc biosensor, MET in solution; association at pH 7.4 (0-120 s), dissociation at pH 7.4 (black trace) or pH 5.4 (grey trace). How it is done: (§1) After allowing for four days of protein expression, cell culture supernatants were collected, quantified by SDS-PAGE analysis, and the pH dependence of the variant was evaluated using biolayer interferometry (BLI) on an Octet RED 96e instrument. Briefly, cell culture supernatants were diluted based on qualitative expression level of the variant determined by visual examination of SDS-PAGE gels, 5 μL of cell culture supernatant was diluted into 195 μL of 1×PBST, pH 7.4 for high expressors, 25 μL of cell culture supernatant was diluted into 175 μL of 1×PBST, pH 7.4 for medium expressors and 100 μL of cell culture supernatant was diluted into 100 μL of 1×PBST, pH 7.4 for low expressors for loading onto the sensor tips. Diluted supernatants were then captured on an anti-human Fc sensor (Forte Bio). A baseline was established using 1×PBST (50 mM Potassium Phosphate Buffer+150 mM NaCl+0.05% Tween 20), pH 7.4, and the sensor was associated with 50 nM of MET (cMET, Sino Biological Cat. No. 10692-H08H) in 1×PBST, pH 7.4, for 120 sec to generate an association curve. In the dissociation phase, the antibody-antigen complex on the sensor was exposed to 1×PBST, pH 7.4 or pH 5.4, for 300-600 sec.

For test [2], the target named is T2, MET Proto-Oncogene, Receptor Tyrosine Kinase (MET), on cells (human, UniProt P08581 25-1390).
T2 construct: also called cMET; c-Met
As to the kind of experiment: affinity on HUVEC against affinity on Detroit-562, flow cytometry, pH 7.4. Here is the method:
(§2) Measurement of the affinity of pH-engineered antibodies specific for MET was performed by FACS analysis on cell lines with ranges of cMET expression; Detroit-562 cells (ATCC; CCL-138), NCI-H1975 (ATCC CRL-5908) and HUVEC (C2519A, Lonza). Cell lines selected for this study were obtained from commercial sources and cultured using manufacturer recommended conditions. All cell lines were cultured upon receipt, expanded and cryopreserved at a similar passage number for use in the affinity experiments. Briefly, 1.0×10\hat{ }5 cells that express MET are plated per well in a 96-well plate in 100 μL media. The cells are washed two times with 200 μL of FACS buffer (1×PBS containing 3% Fetal Bovine Serum) at pH 7.4. The purified protein samples are diluted into FACS buffer at pH 7.4, for a titration from 100 nM to 1 pM, and added to the cells and allowed to bind for 2 hours on ice. After incubation with the primary antibodies, cells are washed twice as before, and then 100 μl of secondary goat anti-Human AF488 (IgG Cross-Adsorbed polyclonal secondary antibody), diluted 1:200, is added in FACS buffer pH 7.4, and incubated for 1 hour on ice. The plates are washed twice Binding is read on a flow cytometer (Accuri C6, BD Biosciences). Binding is observed as a shift in the FL1 signal (as a mean fluorescence intensity) versus secondary alone.
Background: Flow cytometry measures light scatter and fluorescence of single cells or particles in a stream.

In test [3] the target is T2, MET Proto-Oncogene, Receptor Tyrosine …. As to the kind of experiment: flow cytometry titration on HUVEC cells (8k/cell), pH 7.4; printed as Affinity at pH 7.4. Here is the method:
as §2

Test [4] shares this target. As to the kind of experiment: flow cytometry titration on Detroit-562 cells (125K/cell), pH 7.4; printed as Affinity at pH 7.4. How it is done: as §2
In test [5] the target is T1, MET (cMET, Sino Biological Cat. No. …). As to the kind of experiment: BLI: antibody captured on anti-human Fc biosensor, MET in solution; three runs: pH 7.4 throughout (black), pH 6.4 throughout (light grey), association at pH 7.4 then release at lower pH (dark grey; key on D00015: pH 5.4; legend paragraph 84: pH 6.4); association 0-120 s. In general terms: BLI is a label-free optical method that tracks binding on a fibre tip over time.

Test [6] has the same target. The description is as above. The source holds these as a separate data set.
Test [7] has the same target. As to the kind of experiment: BLI: antibody captured on anti-human Fc biosensor, MET in solution; one run at pH 7.4 (black) and one at pH 5.4 (grey); association 0-120 s, then dissociation. Here is the method: as §1, with “Bio).” for “Bio). A baseline was established using 1×PBST (50 mM Potassium Phosphate Buffer+150 mM NaCl+0.05% Tween 20), pH 7.4, and the sensor was associated with 50 nM of MET (cMET, Sino Biological Cat. No. 10692-H08H) in 1×PBST, pH 7.4, for 120 sec to generate an association curve. In the dissociation phase, the antibody-antigen complex on the sensor was exposed to 1×PBST, pH 7.4 or pH 5.4, for 300-600 sec.”

The target is the same in test [8]. As to the kind of experiment: BLI: antibody captured on anti-human Fc biosensor, MET in solution; three runs: pH 7.4 throughout (black), pH 6.4 throughout (light grey), association at pH 7.4 then release at lower pH (dark grey; key on D00015: pH 5.4; legend paragraph 84: pH 6.4); association 0-120 s. The source holds these as a separate data set.
Test [9] has the same target. The test is described as above. The source holds these as a separate data set.

Numbering of substitutions follows the chain as printed.

T2 sequence (P08581 25-1390): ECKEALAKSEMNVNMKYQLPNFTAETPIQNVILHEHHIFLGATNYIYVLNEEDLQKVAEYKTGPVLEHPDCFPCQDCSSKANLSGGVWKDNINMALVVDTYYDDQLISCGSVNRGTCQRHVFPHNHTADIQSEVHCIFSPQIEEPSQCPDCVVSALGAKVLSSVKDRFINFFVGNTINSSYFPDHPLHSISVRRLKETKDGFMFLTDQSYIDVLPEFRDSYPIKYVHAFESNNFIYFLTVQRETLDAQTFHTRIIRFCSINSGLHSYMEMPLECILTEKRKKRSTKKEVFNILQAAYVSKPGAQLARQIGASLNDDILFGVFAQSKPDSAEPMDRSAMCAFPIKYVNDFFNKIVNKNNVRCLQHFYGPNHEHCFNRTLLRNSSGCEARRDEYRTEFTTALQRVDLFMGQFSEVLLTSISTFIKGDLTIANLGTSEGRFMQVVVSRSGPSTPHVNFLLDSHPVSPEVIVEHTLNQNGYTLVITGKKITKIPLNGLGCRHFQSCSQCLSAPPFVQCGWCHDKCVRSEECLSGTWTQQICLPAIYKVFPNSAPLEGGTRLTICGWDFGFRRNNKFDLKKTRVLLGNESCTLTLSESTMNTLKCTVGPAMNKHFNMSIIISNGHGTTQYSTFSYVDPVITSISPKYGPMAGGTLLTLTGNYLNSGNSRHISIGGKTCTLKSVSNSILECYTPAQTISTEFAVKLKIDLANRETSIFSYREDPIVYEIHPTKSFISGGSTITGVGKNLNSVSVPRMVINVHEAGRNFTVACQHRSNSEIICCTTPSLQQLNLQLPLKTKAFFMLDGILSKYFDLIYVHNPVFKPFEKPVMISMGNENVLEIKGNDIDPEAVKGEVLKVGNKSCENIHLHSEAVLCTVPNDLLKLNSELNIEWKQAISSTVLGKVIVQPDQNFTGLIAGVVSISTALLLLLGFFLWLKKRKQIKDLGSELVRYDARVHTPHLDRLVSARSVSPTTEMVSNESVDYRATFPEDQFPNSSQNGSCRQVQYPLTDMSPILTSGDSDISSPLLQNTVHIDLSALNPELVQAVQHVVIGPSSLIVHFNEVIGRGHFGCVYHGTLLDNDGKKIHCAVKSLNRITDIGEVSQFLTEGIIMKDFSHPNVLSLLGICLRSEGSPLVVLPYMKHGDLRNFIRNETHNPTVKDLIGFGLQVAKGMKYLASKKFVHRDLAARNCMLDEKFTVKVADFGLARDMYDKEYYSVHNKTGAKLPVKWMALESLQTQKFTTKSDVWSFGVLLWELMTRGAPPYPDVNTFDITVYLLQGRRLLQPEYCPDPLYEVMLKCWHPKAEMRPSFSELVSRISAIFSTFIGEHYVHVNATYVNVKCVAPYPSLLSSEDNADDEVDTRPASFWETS
T1 sequence (P08581 25-932 limits assumed): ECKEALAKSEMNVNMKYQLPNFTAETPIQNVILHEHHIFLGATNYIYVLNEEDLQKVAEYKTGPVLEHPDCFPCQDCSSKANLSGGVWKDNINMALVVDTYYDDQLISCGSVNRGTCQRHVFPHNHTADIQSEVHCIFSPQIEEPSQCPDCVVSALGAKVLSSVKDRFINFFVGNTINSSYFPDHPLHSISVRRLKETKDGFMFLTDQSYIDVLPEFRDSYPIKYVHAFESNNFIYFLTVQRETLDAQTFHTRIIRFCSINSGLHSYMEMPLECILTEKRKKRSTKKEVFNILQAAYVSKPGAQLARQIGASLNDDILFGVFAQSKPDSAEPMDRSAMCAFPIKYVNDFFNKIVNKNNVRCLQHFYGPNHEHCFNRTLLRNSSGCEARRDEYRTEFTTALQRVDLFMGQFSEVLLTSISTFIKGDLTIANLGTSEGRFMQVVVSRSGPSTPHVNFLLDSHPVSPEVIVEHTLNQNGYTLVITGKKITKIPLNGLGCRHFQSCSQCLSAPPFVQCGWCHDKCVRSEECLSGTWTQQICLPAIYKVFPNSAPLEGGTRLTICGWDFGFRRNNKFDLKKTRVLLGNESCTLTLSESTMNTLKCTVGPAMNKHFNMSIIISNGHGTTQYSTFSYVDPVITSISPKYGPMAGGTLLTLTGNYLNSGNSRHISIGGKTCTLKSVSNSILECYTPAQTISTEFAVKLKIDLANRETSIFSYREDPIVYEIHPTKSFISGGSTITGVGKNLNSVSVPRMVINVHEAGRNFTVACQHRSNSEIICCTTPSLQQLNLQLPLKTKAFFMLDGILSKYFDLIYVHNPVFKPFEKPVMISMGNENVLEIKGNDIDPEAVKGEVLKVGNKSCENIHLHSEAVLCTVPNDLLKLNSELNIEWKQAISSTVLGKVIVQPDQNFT

B1: MYT4826 (antibody, V domains shown)
VH: QVQLVQSGAEVKKPGASVKVSCKASGYTFTHYYMHWVRQAPGQGLEWMGRVNPNRRHTTYNQKFEGRVTMTTDTSTSTAYMELRSLRSDDTAVYYCARANWLDYWGQGTTVTVSS
VL: DIQMTQSPSSLSASVGDRVTITCSVSSSVSSIYLHWYQQKPGKAPKLLIYSTSNLASGVPSRFSGSGSGTDFTLTISSLQPEDFATYYCQVYSGYPLTFGGGTKVEIKR
notes: Emibetuzumab variant
With B1, the binding result in test [1] is “binds”.

B2: MYT5309 (antibody, V domains shown)
VH: B1 VH with H57G
VL: B1 VL with V91H
notes: Emibetuzumab variant
As a reminder, the Kd is the free concentration of one partner at which half of the binding sites on the other are occupied at equilibrium, for simple one-to-one binding. For B2, the “Fold Avidity” value in test [2] is above 50 fold. Further, the Kd in [3] was above 200 nM; in [4], 1.34 nM.

B3: MYT4827 (antibody, V domains shown)
VH: B1 VH with H57G, N100H
VL: B1 VL
notes: Emibetuzumab variant
For B3, in test [5], the binding result is “binds”.

B4: MYT4837 (antibody, V domains shown)
VH: B1 VH with N54H
VL: B1 VL
notes: Emibetuzumab variant
Consider B4, for which the “Fold Avidity” value in [2] was above 100 fold. Moreover, the Kd in test [3] was above 100 nM; in test [4], 1.02 nM.

B5: MYT4849 (antibody, V domains shown)
VH: B1 VH with H31D, H57G
VL: B1 VL with Y33H, S51H
notes: Emibetuzumab variant
Regarding B5, the binding result in [6] is given as “binds”.

B6: MYT4313 (antibody, V domains shown)
VH: QVQLVQSGAEVKKPGASVKVSCKASGYTFTSYWMHWVKQAPGQGLDWIGYIKPSTDNTHYNQKFKDKATLTADKSTSTAYMELSSLRSEDTAVYYCARSYGHYPLMDYWGQGTTVTVSS
VL: QIVLTQSPAILSLSPGERATLSCSASSSVTSNYLYWYQQKPGSSPKLLIYSTSNLASGVPARFSGSGSGTSYTLTISSLEAEDAASYFCHQWSSYPPTFGSGTKLEIKR
notes: P3D12 variant
As for B6, the binding result in [7] is “binds”.

B7: MYT4305 (P3D12) (antibody, V domains shown)
VH: B6 VH with H59E, H102N
VL: QIVLTQSPAILSLSPGERATLSCSASSSVTSNYLYWYQQKPGSSPKLLIYSTSNLASGVPARFSGSGSGTSYTLTISSLEAEDAASYFCHQWSSYPPTFGSGTKLEIK
notes: Human IgG1; also called P3D12 anti-cMET
Take B7: the “Fold Avidity” value in test [2] amounted to 0.7 fold. Moreover, the figures for the Kd in test [3] and in [4] were 0.2 nM and 0.292 nM, respectively.

B8: MYT5344 (antibody, V domains shown)
VH: B6 VH with P53H, H59E, H102N
VL: B6 VL with N32H
notes: P3D12 variant
Regarding B8, in test [1], the binding result is on record as “binds”.

B9: MYT5367 (antibody, V domains shown)
VH: B6 VH with Y50H, H59E, H102N
VL: B6 VL with S94H, P96H
notes: P3D12 variant
As for B9, in test [1], the binding result is “binds”.

B10: MYT4888 (antibody, V domains shown)
VH: B6 VH with H59E, H102N, M106H
VL: B6 VL
notes: P3D12 variant; also called MYTH4888
As for B10, in [8], the binding result was “binds”.

B11: MYT5351 (antibody, V domains shown)
VH: B6 VH with Y50H, H59E, H102N
VL: B6 VL with T52H
notes: P3D12 variant
Consider B11, for which the “Fold Avidity” value in test [2] was above 200 fold. Also, the Kd in test [3] is above 100 nM; in test [4], 0.486 nM.

B12: MYT4942 (antibody, V domains shown)
VH: QVQLVQSGAEVKKPGASVKVSCKASGHIFTAYTMHWVRQAPGQGLEWMGWIKPNNGLANYAQKFQGRVTMTRDTSISTAYMELSRLRSDDTAVYYCARSEITHEFDHWGQGTLVTVSS
VL: DIVMTQSPDSLAVSLGERATINCKSSESVDSYANSHLHWYQQKPGQPPKLLIYRASTRESGVPDRFSGSGSGTDFTLTISSLQAEDVAVYYCQQSKEDPLTFGGGTKVEIKR
notes: Telisotuzumab variant
Consider B12, for which the binding result in test [9] is on record as “binds”.

Source of the values: patent US20240101688A1 (MYTHIC THERAPEUTICS, published 2024).
